Patent US7871610B2, “Antibodies to Tie1 ectodomain” (Dyax Corp., priority 2003, dated 2011)

Molecular target: T1, recombinant human Tie1-Fc (Homo sapiens, UniProt P35590)
T1 construct: selected against the Tie1 extracellular domain fused to human Fc or to a histidine purification tag
T1 sequence (P35590 22-759 limits assumed): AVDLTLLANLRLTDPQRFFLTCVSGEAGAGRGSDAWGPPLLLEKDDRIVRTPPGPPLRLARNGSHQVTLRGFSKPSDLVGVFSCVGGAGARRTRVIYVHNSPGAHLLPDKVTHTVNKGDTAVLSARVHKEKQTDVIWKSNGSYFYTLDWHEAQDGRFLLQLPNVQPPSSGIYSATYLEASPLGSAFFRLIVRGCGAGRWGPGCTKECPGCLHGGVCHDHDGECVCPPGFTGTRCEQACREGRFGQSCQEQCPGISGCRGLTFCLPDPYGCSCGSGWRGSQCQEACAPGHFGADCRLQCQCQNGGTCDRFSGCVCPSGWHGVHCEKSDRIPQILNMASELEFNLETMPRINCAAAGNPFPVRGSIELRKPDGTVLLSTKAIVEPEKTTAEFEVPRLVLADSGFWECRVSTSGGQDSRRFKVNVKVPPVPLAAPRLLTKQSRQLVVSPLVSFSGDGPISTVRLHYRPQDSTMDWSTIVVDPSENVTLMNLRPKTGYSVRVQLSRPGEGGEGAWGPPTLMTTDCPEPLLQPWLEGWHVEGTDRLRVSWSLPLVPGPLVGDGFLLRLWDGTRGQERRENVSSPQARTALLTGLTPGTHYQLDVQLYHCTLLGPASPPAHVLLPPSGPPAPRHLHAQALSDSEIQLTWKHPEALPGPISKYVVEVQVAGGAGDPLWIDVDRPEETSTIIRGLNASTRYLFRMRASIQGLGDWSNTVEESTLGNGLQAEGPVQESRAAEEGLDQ
Assay: BIAcore, parental and germlined E3b Fabs on human Tie-1/Fc
Type: binding
Settings: parental and germlined E3b Fabs, human Tie-1/Fc
Procedure: Recombinant human Tie-1/Fc was coated on a CM5 chip. The surface of the chip was first activated with a 7-minute pulse of 0.05 M NHS/0.2 M EDC, then Tie-1/Fc (2 μg/ml in 10 mM sodium acetate, pH 4.0) was run over the chip surface until 750 RUs were coated on the surface. All flow cells were subsequently deactivated with a 7-minute pulse of 1 M ethanolamine hydrochloride, pH 8.5. All further experiments were performed in HBS buffer.
The parental and the germlined E3b Fabs were prepared. A series of dilution (50, 25, 12.5, 6.25 and 3.125 nM) was prepared in HBS buffer. Samples were injected at 30 μl/min for 5.3 minutes using the KINJECT™ program. This was followed by a 10-minute dissociation phase, and the remaining Fab was stripped from the surface with a single 18-sec injection of 50 mM NaOH/1 M NaCl.
Sensorgrams were analyzed using the simultaneous ka/kd fitting program from the BIAEVALUATION™ software 3.1 assuming a 1:1 model.

B1: E3: human anti-Tie1 antibody from Fab phage library; HC SEQ ID NO:114, LC SEQ ID NO:116 (antibody, V domains shown)
VH: EVQLLESGGGLVQPGGSLRLSCAASGFTFSMYGMVWVRQAPGKGLEWVSVISPSGGNTGYADSVKGRFTISRDNSKNTLYLQVNSLRAEDTAVYYCARAPRGYSYGYYYWGQGTLVTVSSASTKGPSVFPLAPSSKSTSGG
VL: DIQMTQSPLSLSASVGDRVTITCRASQGIGHYLAWYQQKPGKVPKLLIYTASTLQSGVPSRFSGSGSGTDFTLTINSLQPEDVATYYCQQFNSYPHTFGQGTRLDIK
modifications: Synthetically generated peptide
For B1, the “effect of germlining on the affinity against Tie-1/Fc” value was “little or no effect on the affinity”.
